# T1: human PAR-2 (human, UniProt P55085 26-397)
# T1 sequence: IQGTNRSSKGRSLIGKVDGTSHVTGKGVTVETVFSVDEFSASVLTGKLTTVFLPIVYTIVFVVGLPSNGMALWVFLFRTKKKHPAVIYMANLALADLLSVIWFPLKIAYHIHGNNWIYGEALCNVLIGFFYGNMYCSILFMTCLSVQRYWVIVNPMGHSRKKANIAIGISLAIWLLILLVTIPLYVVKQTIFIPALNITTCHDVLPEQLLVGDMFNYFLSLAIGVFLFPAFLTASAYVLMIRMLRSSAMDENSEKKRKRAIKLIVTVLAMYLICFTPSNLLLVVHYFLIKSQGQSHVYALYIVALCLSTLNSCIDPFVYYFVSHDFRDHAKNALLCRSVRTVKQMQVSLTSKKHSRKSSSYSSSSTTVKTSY
# Target: T1, human PAR-2
# Experiment: cell-based or functional assay
row,"PAR-2 β-arrestin cell based assay IC50, 1 µM SLIGKV [nM]",Binder
1,1.99,"P24E232 (antibody, human IgG4 S228P, kappa, V domains shown) VH: QVQLVQSGAEVKKPGSSVKVSCKASGFSLNSYGVIWVRQAPGQGLEWMGVIWGNGNTYYGQKFQGRVTITADESTSTAYMELSSLRSEDTAVYYCARWRGYKDYPFDYWGQGTLVTVSS VL: EIVLTQSPATLSLSPGERATLSCKASQNIYKYLDWYQQKPGQAPRLLIYNTNSLHTGIPARFSGSGSGRDFTLTISSLEPEDFAVYYCLQHNSGWTFGGGTKVEIKR"
2,1.33,"P24E219 (antibody, human IgG4 S228P, kappa, V domains shown) VH: QVQLVQSGAEVKKPGSSVKVSCKASGFSLNSYGGIWVRQAPGQGLEWMGVIWGNGNTYYNQKFQGRVTITADESTSTAYMELSSLRSEDTAVYYCARWRGYKDYPFDYWGQGTLVTVSS VL: EIVLTQSPATLSLSPGERATLSCKASQNIYKYLDWYQQKPGQAPRLLIYNTNSLHTGIPARFSGSGSGRDFTLTISSLEPEDFAVYYCLQHNSGWTFGGGTKVEIKR"
3,1.77,"P24E233 (antibody, human IgG4 S228P, kappa, V domains shown) VH: QVQLVQSGAEVKKPGSSVKVSCKASGFSLNSYGVIWVRQAPGQGLEWMGVIWGNGNTYYYQKFQGRVTITADESTSTAYMELSSLRSEDTAVYYCARWRGYKDYPFDYWGQGTLVTVSS VL: EIVLTQSPATLSLSPGERATLSCKASQNIYKYLDWYQQKPGQAPRLLIYNTNSLHTGIPARFSGSGSGRDFTLTISSLEPEDFAVYYCLQHNSGWTFGGGTKVEIKR"

# The remaining lines, values behind:
row,Binder,"PAR-2 β-arrestin cell based assay IC50, 1 µM SLIGKV [nM]"
1,"P24E41 (antibody, human IgG4 S228P, kappa, V domains shown) VH: QVQLVQSGAEVKKPGSSVKVSCKASGFSLNSYGVIWVRQAPGQGLEWMGVIWGNGNTYYNQKFQGRVTITADESTSTAYMELSSLRSEDTAVYYCARWRGYKDYPFDYWGQGTLVTVSS VL: EIVLTQSPATLSLSPGERATLSCKASQNIYKYLDWYQQKPGQAPRLLIYDASNRATGIPARFSGSGSGRDFTLTISSLEPEDFAVYYCLQHNSGWTFGGGTKVEIKR",26.9
2,"P24E61 (antibody, human IgG4 S228P, kappa, V domains shown) VH: QVQLVQSGAEVKKPGSSVKVSCKASGFSLNSYGVIWVRQAPGQGLEWMGVIWGNGNTYYNQKFQGRVTITADESTSTAYMELSSLRSEDTAVYYCARWRGYKDYPFDYWGQGTLVTVSS VL: EIVLTQSPATLSLSPGERATLSCKASQNIYKFLDWYQQKPGQAPRLLIYNTNSLHTGIPARFSGSGSGRDFTLTISSLEPEDFAVYYCLQHNSGWTFGGGTKVEIKR",2.56
3,"P24E60 (antibody, human IgG4 S228P, kappa, V domains shown) VH: QVQLVQSGAEVKKPGSSVKVSCKASGFSLNSYGVIWVRQAPGQGLEWMGVIWGNGNTYYNQKFQGRVTITADESTSTAYMELSSLRSEDTAVYYCARWRGYKDYPFDYWGQGTLVTVSS VL: EIVLTQSPATLSLSPGERATLSCKASQNIYKWLDWYQQKPGQAPRLLIYNTNSLHTGIPARFSGSGSGRDFTLTISSLEPEDFAVYYCLQHNSGWTFGGGTKVEIKR",2.03
4,"P24E186 (antibody, human IgG4 S228P, kappa, V domains shown) VH: QVQLVQSGAEVKKPGSSVKVSCKASGFSLNSYGVIWVRQAPGQGLEWMGVIWGNGNTYYNQKFQGRVTITADESTSTAYMELSSLRSEDTAVYYCARWRGWKDYPFDYWGQGTLVTVSS VL: EIVLTQSPATLSLSPGERATLSCKASQNIYKYLDWYQQKPGQAPRLLIYNTNSLHTGIPARFSGSGSGRDFTLTISSLEPEDFAVYYCLQHNSGWTFGGGTKVEIKR",3.25
5,"P24E216 (antibody, human IgG4 S228P, kappa, V domains shown) VH: QVQLVQSGAEVKKPGSSVKVSCKASGFSLNYYGVIWVRQAPGQGLEWMGVIWGNGNTYYNQKFQGRVTITADESTSTAYMELSSLRSEDTAVYYCARWRGYKDYPFDYWGQGTLVTVSS VL: EIVLTQSPATLSLSPGERATLSCKASQNIYKYLDWYQQKPGQAPRLLIYNTNSLHTGIPARFSGSGSGRDFTLTISSLEPEDFAVYYCLQHNSGWTFGGGTKVEIKR",1.95

# — patent US20220056125A1 (CEPHALON, published 2022)
